Data on 17 molecules can be found in patent US20120058118A1 (Boehringer Ingelheim, published 2012).

In test [1] the target is T1, aggregated A-beta(1-40) peptide (BAA) (human).
T1 construct: also called A-beta peptide aggregates
The experiment in a line: BAA ELISA. On the technique in general: ELISA stands for enzyme-linked immunosorbent assay.

Test [2] addresses T2, human A-beta(1-40) peptide, monomeric (BAM) (human, biotin at the C-terminus in capture ELISA, SPR and TR-FRET; not biotinylated where coated directly (Example 7)).
T2 construct: synthetic peptide (Anaspec), TFA/HFIP treated to give monomer; also called monomeric A-beta
The experiment in a line: BAM ELISA.

The target of test [3] is T1, aggregated A-beta(1-40) peptide (BAA). The experiment in a line: BAA ELISA. The source holds these as a separate data set.
In test [4] the target is T2, human A-beta(1-40) peptide, monomeric …. The experiment in a line: cell-based or functional assay.
For test [5] the target is unchanged. The experiment in a line: TR-FRET competition, labelled ABII60A10; extrapolated curve.
The target in test [6] is T3, A-beta(12-28) peptide (human).
T3 construct: Bachem peptide captured on streptavidin chip; also called monomeric A-beta(12-28); central region
T3 peptide: Biotin-VHHQKLVFFAEDVGSNK
The experiment in a line: SPR on captured A-beta(12-28).
Protocol: After capturing, surfaces are blocked by injecting an excess (200 μg/ml) of d-biotin for 180 s at 5 μl/min. A reference surface is washed and blocked with d-biotin. HBS-EP+buffer is used as the running buffer and experiments are performed at 25° C. For off-rate screening, periplasmic extracts of VHHs are injected at a 10-fold dilution for 2 min at 45 μl/min and are allowed to dissociate for 10 min. […] Between different VHH samples, the surfaces are regenerated with regeneration buffer (50 mM NaOH) for 25 s at 45 μl/min followed by 10 s 6M GuHCl at 45 μl/min if regeneration is incomplete. […] Data are double referenced by subtraction of the curves on the reference channel and of a blank running buffer injection. Sensorgrams are evaluated by fitting a 1:1 dissociation model using the Biacore T100 Evaluation software v1.1.1.

Test [7] has as its target T2, human A-beta(1-40) peptide, monomeric …. The experiment in a line: BAM ELISA. This is another data set of the same source.
Test [8] has the same target. The experiment in a line: 60A10 TR-FRET assay (labelled ABII60A10). (In TR-FRET formats the signal depends on donor and acceptor labels being close together.)
The target is the same in test [9]. The experiment in a line: 42D4 TR-FRET assay (labelled ABII42D4).
Test [10] shares this target. The experiment in a line: ABII050 TR-FRET competition assay.
Test [11] shares this target. The experiment in a line: ABII002 TR-FRET competition assay.

Ends that are not written are not given here. * marks the point of attachment. Biotin = O=C1N[C@H]2[C@H](CS[C@H]2CCCCC(=O)*)N1

B1: reference VHH 3A (VHH)
VHH: AVQLVESGGGLVRDGDSLRLSCAASGRTFSSYVMGWFRQAPGKEREFVAAIGWSGGSTAYADSVKGRFTISRDNARNTVYLQMNSLKPEDTAVYYCASAPTRWVPRDSRFYDRWGQGTRVTVSS
notes: from WO2007/35092
As for B1, the binding result in [1] and in test [2] was “no binding” each time.

B2: ABII42E10 (VHH)
VHH: EVQLVESGGGLVQPGGSLRLSCAASGLTFTLYTMGWFRQAPGKEREFVAAISASGGTTYYADSVKGRFALSRDNAKNTVFLQMNTLKPEDTAEYLCAAAFRGFAINTPTSYNYWGQGTQVTVSS
Take B2: the EC50 in test [3] was determined as 2.6 nM; in test [7], 17.5 nM. For the same molecule, in [4], the “inhibition of peptide aggregation (ThT fluorescence), 28 µM VHH” value (“inhibition of peptide aggregation” below) was 75%. Moreover, the IC50 in test [5] is 205 nM. The binding result in test [6] is on record as “binds”.

B3: ABII1E11 (VHH)
VHH: EVQLVESGGGLVQPGGSLRLSCAASGRTFSDYNMGWFHQAPGKEREIVAAISRSGRSTYYTVSVEGRFTISRDNAKNTVDLEMNSLKPEDTGIYYCAANSAGRAINLPLYKYWGQGTQVTVSS
As for B3, the EC50 in test [3] was 19.2 nM; in test [7], 27.3 nM. Moreover, in test [5], the IC50 is 844 nM. Further, the binding result in [6] was “binds”.

B4: ABII35D2 (VHH)
VHH: EVQLVESGGGLVQAGGSLRLSCVASGLTFSSYNMGWFRQAPGKEREFVAAISRSGGSTYYTDSVKGRFTISRDSSKNTVYLQMNSLKPEDTADYYCAAALFGSAINLLSEYRYWGQGTQVTVSS
Turning to B4, the EC50 in test [3] was 12.8 nM; in test [7], 37.5 nM. Also, in test [4], the “inhibition of peptide aggregation” value came out at 73%. Moreover, in test [5], the IC50 is 773 nM. In addition, in [6], the binding result is given as “binds”.

B5: reference VHH 1B (VHH)
VHH: QVQLQESGGGLVQPGGSLRLSCAASEFTLDYYSIAWFRQAPGKEREGVSCISSYDGSTSYADSVKGRFTISRDNAKNTVYLQMNSLKPEDTAIYYCAAGIRDWATLREYEYDDWGQGTQVTVSS
notes: from WO2007/35092
Take B5: the binding result in test [1] and in [2] was “no binding” in each case.

B6: ABII60A10-35GS-ABII42D4 (designed binder)
chain: EVQLVESGGGLVQAGGSLRLSCAASGRTFNNYNMGWFRQAPGKEREFVAAVSRSGVSTYYADSVKGRFTISRDNAKNAVYLQMNSLKPEDTAIYYCGAAYRGTAINVRRSYDSWGQGTQVTVSSGGGGSGGGGSGGGGSGGGGSGGGGSGGGGSGGGGSEVQLVESGGGLVLAGGSLRLSCVHSGPTFSTDTMGWFRQAPGKEREFVAAVTWNSGRTNYADSVKGRFTVSRDNTRNAAYLQMSGLKDEDTAVYYCTAHRLVVGGTSVGDWRYWGQGTQVTVSS
notes: biparatopic VHH construct
On to B6, for which the IC50 in [8] amounted to 0.091 nM; in test [9], 0.055 nM.

B7: ABII61F6 (VHH)
VHH: EVQLVESGGGLVQTGGSLRLSCAASGSTVNINAMGWYRQAPGKQRELVAIINKRGVTNYADSTEGRFTISRDNSKRTLYLQMNSLKPEDTAVYYCNAVVGRYGRTYGYWGQGTQVTVSS
Turning to B7, the EC50 in test [3] is 14.5 nM; in [7] it was 469 nM. Moreover, the half-inhibitory concentration (IC50) in test [5] is 967 nM. For the same molecule, in [6], the binding result was “binds”.

B8: ABII42D4-35GS-ABII60A10 (designed binder)
chain: EVQLVESGGGLVLAGGSLRLSCVHSGPTFSTDTMGWFRQAPGKEREFVAAVTWNSGRTNYADSVKGRFTVSRDNTRNAAYLQMSGLKDEDTAVYYCTAHRLVVGGTSVGDWRYWGQGTQVTVSSGGGGSGGGGSGGGGSGGGGSGGGGSGGGGSGGGGSEVQLVESGGGLVQAGGSLRLSCAASGRTFNNYNMGWFRQAPGKEREFVAAVSRSGVSTYYADSVKGRFTISRDNAKNAVYLQMNSLKPEDTAIYYCGAAYRGTAINVRRSYDSWGQGTQVTVSS
notes: biparatopic VHH construct
Turning to B8, the IC50 was determined as 0.084 nM in test [8] and 0.05 nM in test [9].

B9: ABII42F5 (VHH)
VHH: EVQLVESGGGLVQAGDSLRLSCTASGRTFTDYNIGWFCQAPGKEREFVAAISGSGGSTYYADSAKGRFTISRDNAKNTVYLQMNSLKPEDTAVYACAAAQRRLAVNVDTSYNVWGQGTQVTVSS
For the molecule B9, the values for the EC50 in test [3] and in [7] were 20 nM and 41.1 nM, respectively. Also, in test [4], the “inhibition of peptide aggregation” value came to 79%. Also, the IC50 in test [5] is 228 nM. Besides, the binding result in test [6] is “binds”.

B10: reference VHH 11G (VHH)
VHH: QVQLQESGGGLVQPGGSLRLSCAASGSIFSINTMAWYRQAPGKERDLVAAIISSGSTNYADSVKGRFTISRDNTKNTVYLQMNSLKLEDTAVYYCNAAIRRSVIDAWGAYWGQGTQVTVSS
notes: from WO2007/35092
On to B10, for which the binding result in [1] and in [2] was “no binding” each time.

B11: ABII323-PEG40 (designed binder)
chain: VQLLESGGGLVQPGGSLRLSCAASGRTFNNYNMGWFRQAPGKGREFVAAVSRSGVSTYYADSVKGRFTISRDNSKNTVYLQMNSLRPEDTAVYYCAAAYRGTAINVRRSYSSWGQGTLVTVSSGGGGSGGGGSGGGGCGGGGSGGGGSGGGGSGGGGSEVQLLESGGGLVQPGGSLRLSCVHSGPTFRTDTMGWFRQAPGKGREFVAAVTWNSGRINYADSVKGRFTISRDNSKNTAYLQMNSLRPEDTAVYYCAAHRFVVGGNRVEDWRYWGQGTLVTVSS
modifications: PEG40 on the Cys at position 15 of the 35GS linker
notes: 059-35GSC-035
As for B11, the IC50 in test [10] was 0.2 nM; in test [11], 0.18 nM.

B12: ABII35G2 (VHH)
VHH: EVQLVESGGGLVQAGGSLRLSCVASGRTFSNYGMGWFRQAPGKDREFVAAISRSGGTTYYEDDVKGRFTISRDNAKNSVYLQMNSLKPEDTAVYYCAARPSYVAVNIAASYNNWGQGTQVTVSS
B12: the EC50 in [3] was found to be 5.4 nM; in test [7], 10.7 nM. Also, the “inhibition of peptide aggregation” value in [4] is 76%. Further, the IC50 in [5] was 645 nM. For the same molecule, the binding result in test [6] was “binds”.

B13: ABII315-PEG40 (designed binder)
chain: EVQLLESGGGLVQPGGSLRLSCAASGRTFNNYNMGWFRQAPGKGREFVAAVSRSGVSTYYADSVKGRFTISRDNSKNTVYLQMNSLRPEDTAVYYCAAAYRGTAINVRRSYSSWGQGTLVTVSSGGGGCGGGSEVQLLESGGGLVQPGGSLRLSCVHSGPTFRTDTMGWFRQAPGKGREFVAAVTWNSGRINYADSVKGRFTISRDNSKNTAYLQMNSLRPEDTAVYYCAAHRFVVGGNRVEDWRYWGQGTLVTVSS
modifications: PEG40 on the Cys at position 5 of the 9GS linker
notes: 059-9GSC-035; purified as His6-tagged construct before PEGylation
On to B13, for which, in test [10], the IC50 was found to be 0.31 nM.

B14: ABII35C7 (VHH)
VHH: EVQLVESGGGLVQPGGSLRLSCAASGRTFSIYNMGWFRQAPGKEREFVAAISRSGSSTYYGDSVKGRFTISRDNAKKTVYLQMNSLKPEDTAVYHCAAARFGTPINTRGSYDYWGQGTQVTVSS
In the case of B14, the EC50 in test [3] is 1.3 nM; in test [7] it was 1.9 nM. Also, in [4], the “inhibition of peptide aggregation” value was found to be 82%. In addition, the IC50 in [5] was 206 nM. Further, the binding result in [6] was “binds”.

B15: ABII059-27GS-ABII035-MSA (designed binder)
chain: EVQLLESGGGLVQPGGSLRLSCAASGRTFNNYNMGWFRQAPGKGREFVAAVSRSGVSTYYADSVKGRFTISRDNSKNTVYLQMNSLRPEDTAVYYCAAAYRGTAINVRRSYSSWGQGTLVTVSSGGGSGGGGSGGGGSGGGGSGGGGSGGGEVQLLESGGGLVQPGGSLRLSCVHSGPTFRTDTMGWFRQAPGKGREFVAAVTWNSGRINYADSVKGRFTISRDNSKNTAYLQMNSLRPEDTAVYYCAAHRFVVGGNRVEDWRYWGQGTLVTVSS
notes: built from the printed name; not shown: mouse serum albumin
On to B15, for which the IC50 in test [10] is 0.18 nM; in [11], 0.19 nM.

B16: ABII059-27GS-ABII035-MSA_D3 (designed binder)
chain: EVQLLESGGGLVQPGGSLRLSCAASGRTFNNYNMGWFRQAPGKGREFVAAVSRSGVSTYYADSVKGRFTISRDNSKNTVYLQMNSLRPEDTAVYYCAAAYRGTAINVRRSYSSWGQGTLVTVSSGGGSGGGGSGGGGSGGGGSGGGGSGGGEVQLLESGGGLVQPGGSLRLSCVHSGPTFRTDTMGWFRQAPGKGREFVAAVTWNSGRINYADSVKGRFTISRDNSKNTAYLQMNSLRPEDTAVYYCAAHRFVVGGNRVEDWRYWGQGTLVTVSS
notes: built from the printed name; not shown: domain III of mouse serum albumin
In the case of B16, the values for the IC50 in test [10] and in [11] were 0.12 nM and 0.1 nM, respectively.

B17: reference VHH 31-1 (VHH)
VHH: EVQLQASGGGSVQPGGSLRLSCAASGFIFGWSTMSWVRQAPGKGLEWVSTISGGGSATTYTDSVKGRFTISRDRAKNTLYLQMNSLKPEDTAIYYCNADVSTGFRYQRKDYWGRGTQVTVSS
notes: from WO2004/44204; also called V31-1
B17: the binding result in [1] and in test [2] was “no binding” each time.

As a reminder, the EC50 is the concentration needed to bring the measured effect to its halfway point. The low end stands for a more potent agent, the high end for a less potent agent. The IC50 is the point on the concentration scale where inhibition reaches its midpoint.
